Test results taken from patent US7597894B2, “Compositions and methods employing alternative reading frame polypeptides for the treatment of cancer and infectious disease” (Dendreon Corporation, priority 2003, dated 2009).

B1: HER300: recombinant fusion protein with 289 amino acids of HER-2 membrane distal extracellular domain and OVA257-264; negative control (protein, listed as Homo sapiens)
chain: MRAAPLLLARAASLSLGFLFLLFFWLDRSVLAKELARGAASTQVCTGTDMKLRLPASPETHLDMLRHLYQGCQVVQGNLELTYLPTNASLSFLQDIQEVQGYVLIAHNQVRQVPLQRLRIVRGTQLFEDNYALAVLDNGDPLNNTTPVTGASPGGLRELQLRSLTEILKGGVLIQRNPQLCYQDTILWKDIFHKNNQLALTLIDTNRSRACHPCSPMCKGSRCWGESSEDCQSLTRTVCAGGCARCKGPLPTDCCHEQCAAGCTGPKHSDCLACLHFNHSGICELHCPALVTYNTDTFESMPNPEGRYTFGASCVTACPYNYLSTDVGSASIINFEKLAAPTRSPNPVTRPWKHVDAIKEALSLLNDMRALENEKNEDVDIISNEFSIQRPTCVQTRLKLYKQGLRGNLTKLNGALTMIASHYQTNCPPTPETDCEIEVTTFEDFIKNLKGFLFDIPFDCWKPVQKGAPPPPAHHHHHH
B2: HER500rGM-CSF: recombinant fusion protein of hHER-2 extracellular and intracellular domain sequences, OVA octapeptide and rat GM-CSF; positive control (protein, listed as Homo sapiens)
chain: MRAAPLLLARAASLSLGFLFLLFFWLDRSVLAKELARGAASTQVCTGTDMKLRLPASPETHLDMLRHLYQGCQVVQGNLELTYLPTNASLSFLQDIQEVQGYVLIAHNQVRQVPLQRLRIVRGTQLFEDNYALAVLDNGDPLNNTTPVTGASPGGLRELQLRSLTEILKGGVLIQRNPQLCYQDTILWKDIFHKNNQLALTLIDTNRSRACHPCSPMCKGSRCWGESSEDCQSLTRTVCAGGCARCKGPLPTDCCHEQCAAGCTGPKHSDCLACLHFNHSGICELHCPALVTYNTDTFESMPNPEGRYTFGASCVTACPYNYLSTDVGSASIINFEKLGAGGMVHHRHRSSSTRSGGGDLTLGLEPSEEEAPRSPLAPSEGAGSDVFDGDLGMGAAKGLQSLPTHDPSPLQRYSEDPTVPLPSETDGYVAPLTCSPQPEYVNQPDVRPQPPSPREGPLPAARPAGATLERAKTLSPGKNGVVKDVFAFGGAVENPEYLTPQGGAAPQPHPPPAFSPAFDNLYYWDQDPPERGAPPSTFKGTPTAENPEYLGLDVPAAAPTRSPNPVTRPWKHVDAIKEALSLLNDMRALENEKNEDVDIISNEFSIQRPTCVQTRLKLYKQGLRGNLTKLNGALTMIASHYQTNCPPTPETDCEIEVTTFEDFIKNLKGFLFDIPFDCWKPVQKGAPPPPAHHHHHH

Experiments:
[1] = system: CD8 T cell hybridoma B6-H9.B7; experiment: T cell hybridoma assay (stimulation of CD8 T cell hybridoma B6-H9.B7 by Ag-pulsed cells); type: cell-based, mouse; conditions: untransfected EL-4 tumor cells pre-pulsed with the peptide as stimulators
Experimental: CD8 T cell hybridoma B6-H9.B7, specific for the protective Arf peptide 3h, was isolated from mice immunized with HER-2-derived Arf pool B peptides. FIG. 8D. This hybridoma was stimulated by untransfected EL-4 tumor cells pre-pulsed with the peptide 3h as well as an E.HER2 tumor transfectant in the absence of any externally added Arf peptide.
Arf epitope-specific MHC class I-dependent CD8^+ T cell hybridoma B6.H9-B7 was obtained by fusing thymoma cell line BWZ.36CD8 with splenocytes of mice immunized with HER-2-derived Arf pool B3 peptides. Sanderson et al., Int. Immunol. 6:369-376 (1994). The T cell hybridoma assay was performed as described previously. Karttunen et al., Proc. Natl. Acad. Sci. USA. 88:3972-3976 (1991). Briefly, 10^5 hybridoma cells were incubated in 0.2 ml micro-wells with designated washed Ag-pulsed APC. Stimulation of B6.H9-B7 was visualized after incubation with chlorophenol red B-galactoside (expressed in relative light units). FIG. 8E.

[2] = system: hHER-2/EL4 (E.HER2) tumor cells; experiment: Survival after hHER-2/EL4 (E.HER2) tumor challenge of mice pre-immunized with antigen-pulsed dendritic cells; type: in vivo, mouse; conditions: C57BL/6 mice pre-immunized i.p. with antigen-pulsed activated DC, challenged i.p. with hHER-2/EL4 (E.HER2) cells
Experimental: (§1) The hHER-2/E14 tumor cell line was generated by transfecting the mouse EL4 thymoma cell line (ATCC No. TIB-39, Rockville, Md.) with full-length human HER-2 cDNA cloned into the MIRB vector. The hHER-2/B16 tumor cell line was generated by transfecting the mouse B16 melanoma cell line (ATCC No. CRL-6322, Rockville, Md.) with full-length human HER-2 cDNA cloned into the pCR3.1 vector.
(§2) Enriched activated dendritic cells (DCs) were prepared as described (Laus et al., Nature Biotechnology 18:1269-1272 (2000)). Briefly, enriched preparations of activated DC were prepared by incubating female C57BL/6 spleen cells in tissue culture flasks for 2 h at 37° C., removing non-adherent cells, and subsequently culturing the remaining adherent cells for two days in the presence of 1 μM ionomycin (Sigma, St. Louis, Mo.). DC obtained in this manner were pulsed by sixteen hour co-culture with each of the indicated HER-2 ARF polypeptide pools or HER-2 fusion proteins in 1 μM ionomycin, washed two times and injected intraperitoneally (i.p.) into the C57BL/6 mice (2.5×10^5 cells per mouse). Two weeks after the last immunization, mice were challenged with a single i.p. injection of hHER-2/EL4 cells or hHER-2/B 16 cells in 0.1 ml PBS. Mice were monitored daily and their survival recorded.
The effect of pre-immunization with HER-2-ARF polypeptide-pulsed activated DC on suppression of in vivo growth of HER-2-expressing autologous tumors was evaluated in a mouse animal model system. The results of two independent experiments using hHER-2/EL4 cells are shown in FIGS. 1A and 1B, respectively. The results of two independent experiments using hHER-2/B 16 tumor cells are shown in FIGS. 2A and 2B, respectively.

[3] = system: mPAP/B16 (B16.mPAP) tumor cells; experiment: Survival after challenge with B16 cells expressing an irrelevant antigen (mouse PAP); type: in vivo; conditions: C57BL/6 mice pre-immunized with antigen-pulsed DC, challenged with B16 cells expressing irrelevant antigen mouse PAP
[4] = system: hHER-2/B16 (B16.HER2) tumor cells; experiment: Survival after hHER-2/B16 tumor challenge of mice pre-immunized with antigen-pulsed dendritic cells; type: in vivo, mouse; conditions: C57BL/6 mice pre-immunized with antigen-pulsed DC, challenged with hHER-2/B16 cells
Experimental: as §1
as §2, with “Two weeks after the last immunization, mice were challenged with a single i.p. injection of hHER-2/EL4 cells or hHER-2/B 16 cells in 0.1 ml PBS.” left out
The effect of pre-immunization with HER-2-ARF polypeptide-pulsed activated DC on suppression of in vivo growth of HER-2-expressing autologous tumors was evaluated in a mouse animal model system. […]

Molecule	stimulation of CD8 T cell hybridoma B6-H9.B7 [1]	protection against tumor challenge / survival (prevention of in vivo tumor growth) [2]	protection against tumor challenge / survival [3]	protection against tumor challenge / survival [4]
RHEAAAPCQSRDPPG (Made in a lab from synthetic material) [3h]	stimulated	strong protective capabilities	–	–
VHRHRHEAAAPCQSR (Made in a lab from synthetic material) [3g]	–	strong protective capabilities	–	–
B1	–	had little effect	–	–
B2	–	prevented tumor growth	no protection	protection
